Laboratory results from article PMC10367427 (Frontiers in Immunology, 2023).

Target: T1, SARS-CoV-2 full-length nucleocapsid protein (NP) (SARS-CoV-2, reference (Wuhan-Hu-1; Gene …, UniProt P0DTC9)
T1 construct: also called full-length NP
Test: ELISA
Conditions: both partners purified

B1: NbON10-NanoLuc fusion protein (VHH)
VHH: QVQLVQSGGGLVQPGGSLRLSCAASGLRLGYYTIAWFRQAPGKEREGISCISRSDGSTYYADSVKGRFTISTDNAENTVYLQMNSLKPEDTAVYYCAADFVPASHCAVANTRGYDYWGQGTQVTVSS
binding result: binds
